Source: the supplement of paper PMC9112550, “Optimization of the antimicrobial peptide Bac7 by deep mutational scanning” (BMC Biology, 2022)
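Further: peptides expressed intracellularly from a pBAD plasmid library in pooled LB shake-flask culture, induced with 0.3% L-arabinose, DNA abundance read by NGS, three biological replicates, DESeq2 with apeglm shrinkage.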

The sequences below were run on Escherichia coli TOP10 (assay: shrunken log2 fold change of peptide-encoding DNA abundance (4.5 h post-induction vs induction); higher = less antimicrobial activity (less host growth inhibition)). Conditions: time post-induction: 4.5 h; library: site-saturation at positions 5, 18, 19, 20.
RRIRMRPPRLPRPRPRPNASPRP was tested, and the “shrunken log2 fold change” value was 0.0546. RRIRMRPPRLPRPRPRPNDPPRP was tested, and the “shrunken log2 fold change” value was -0.516. RRIRMRPPRLPRPRPRPNDQPRP was tested, and the “shrunken log2 fold change” value was 0.0566. In the case of RRIRMRPPRLPRPRPRPNDTPRP, the “shrunken log2 fold change” value was 0.11. For RRIRMRPPRLPRPRPRPNEHPRP, the “shrunken log2 fold change” value was 0.0235. With RRIRMRPPRLPRPRPRPNEWPRP the “shrunken log2 fold change” value was 0.23. RRIRMRPPRLPRPRPRPNFKPRP was tested, and the “shrunken log2 fold change” value was -0.0166. In the case of RRIRMRPPRLPRPRPRPNFWPRP, the “shrunken log2 fold change” value was 0.294. With RRIRMRPPRLPRPRPRPNHFPRP the “shrunken log2 fold change” value was -0.436. With RRIRMRPPRLPRPRPRPNISPRP the “shrunken log2 fold change” value was -0.29. With RRIRMRPPRLPRPRPRPNIYPRP the “shrunken log2 fold change” value was -0.124. RRIRMRPPRLPRPRPRPNLQPRP was tested, and the “shrunken log2 fold change” value was -0.0416. RRIRMRPPRLPRPRPRPNLVPRP was tested, and the “shrunken log2 fold change” value was 0.288. For RRIRMRPPRLPRPRPRPNNKPRP, the “shrunken log2 fold change” value was -0.183. For RRIRMRPPRLPRPRPRPNNSPRP, the “shrunken log2 fold change” value was -0.327. With RRIRMRPPRLPRPRPRPNQLPRP the “shrunken log2 fold change” value was 0.0894. In the case of RRIRMRPPRLPRPRPRPNRNPRP, the “shrunken log2 fold change” value was -0.292. RRIRMRPPRLPRPRPRPNSEPRP was tested, and the “shrunken log2 fold change” value was 0.128. For RRIRMRPPRLPRPRPRPNSSPRP, the “shrunken log2 fold change” value was -0.1. RRIRMRPPRLPRPRPRPNTQPRP was tested, and the “shrunken log2 fold change” value was 0.0014. In the case of RRIRMRPPRLPRPRPRPNTVPRP, the “shrunken log2 fold change” value was -0.162. For RRIRMRPPRLPRPRPRPNVIPRP, the “shrunken log2 fold change” value was -0.117. With RRIRMRPPRLPRPRPRPNVWPRP the “shrunken log2 fold change” value was 0.303. In the case of RRIRMRPPRLPRPRPRPNWRPRP, the “shrunken log2 fold change” value was 0.0183. In the case of RRIRMRPPRLPRPRPRPNWWPRP, the “shrunken log2 fold change” value was -0.0136. With RRIRMRPPRLPRPRPRPNYWPRP the “shrunken log2 fold change” value was -0.0168. For RRIRMRPPRLPRPRPRPPDMPRP, the “shrunken log2 fold change” value was 1.06. For RRIRMRPPRLPRPRPRPPDNPRP, the “shrunken log2 fold change” value was 1.55. For RRIRMRPPRLPRPRPRPPDWPRP, the “shrunken log2 fold change” value was 1.7. In the case of RRIRMRPPRLPRPRPRPPECPRP, the “shrunken log2 fold change” value was 0.369. RRIRMRPPRLPRPRPRPPEHPRP was tested, and the “shrunken log2 fold change” value was 0.353. In the case of RRIRMRPPRLPRPRPRPPEMPRP, the “shrunken log2 fold change” value was 0.329. With RRIRMRPPRLPRPRPRPPFVPRP the “shrunken log2 fold change” value was 0.267. With RRIRMRPPRLPRPRPRPPGMPRP the “shrunken log2 fold change” value was 1.08. In the case of RRIRMRPPRLPRPRPRPPGRPRP, the “shrunken log2 fold change” value was 0.849. With RRIRMRPPRLPRPRPRPPIHPRP the “shrunken log2 fold change” value was 0.166. RRIRMRPPRLPRPRPRPPIKPRP was tested, and the “shrunken log2 fold change” value was 0.288. With RRIRMRPPRLPRPRPRPPITPRP the “shrunken log2 fold change” value was -0.109. For RRIRMRPPRLPRPRPRPPKAPRP, the “shrunken log2 fold change” value was 1.02. With RRIRMRPPRLPRPRPRPPKMPRP the “shrunken log2 fold change” value was 0.477. With RRIRMRPPRLPRPRPRPPKWPRP the “shrunken log2 fold change” value was 0.315. With RRIRMRPPRLPRPRPRPPLGPRP the “shrunken log2 fold change” value was 1.08. In the case of RRIRMRPPRLPRPRPRPPLVPRP, the “shrunken log2 fold change” value was 0.36. For RRIRMRPPRLPRPRPRPPMCPRP, the “shrunken log2 fold change” value was 0.293. With RRIRMRPPRLPRPRPRPPMKPRP the “shrunken log2 fold change” value was -0.0709. With RRIRMRPPRLPRPRPRPPNFPRP the “shrunken log2 fold change” value was 0.35. With RRIRMRPPRLPRPRPRPPPEPRP the “shrunken log2 fold change” value was 1.82. In the case of RRIRMRPPRLPRPRPRPPQHPRP, the “shrunken log2 fold change” value was 0.817. For RRIRMRPPRLPRPRPRPPQKPRP, the “shrunken log2 fold change” value was 0.173. In the case of RRIRMRPPRLPRPRPRPPRHPRP, the “shrunken log2 fold change” value was 0.955. With RRIRMRPPRLPRPRPRPPRKPRP the “shrunken log2 fold change” value was 1.49. RRIRMRPPRLPRPRPRPPSFPRP was tested, and the “shrunken log2 fold change” value was -0.0206. RRIRMRPPRLPRPRPRPPTRPRP was tested, and the “shrunken log2 fold change” value was 1.25. In the case of RRIRMRPPRLPRPRPRPPWDPRP, the “shrunken log2 fold change” value was 0.931. For RRIRMRPPRLPRPRPRPPYHPRP, the “shrunken log2 fold change” value was -0.0913. In the case of RRIRMRPPRLPRPRPRPPYTPRP, the “shrunken log2 fold change” value was -0.0678. RRIRMRPPRLPRPRPRPPYYPRP was tested, and the “shrunken log2 fold change” value was -0.243. In the case of RRIRMRPPRLPRPRPRPQCWPRP, the “shrunken log2 fold change” value was 0.14. RRIRMRPPRLPRPRPRPQDKPRP was tested, and the “shrunken log2 fold change” value was 0.132. With RRIRMRPPRLPRPRPRPQDNPRP the “shrunken log2 fold change” value was 0.013. For RRIRMRPPRLPRPRPRPQDYPRP, the “shrunken log2 fold change” value was -0.0945. With RRIRMRPPRLPRPRPRPQETPRP the “shrunken log2 fold change” value was -0.00161. With RRIRMRPPRLPRPRPRPQFNPRP the “shrunken log2 fold change” value was -0.661. For RRIRMRPPRLPRPRPRPQGRPRP, the “shrunken log2 fold change” value was 0.113. For RRIRMRPPRLPRPRPRPQGYPRP, the “shrunken log2 fold change” value was 0.0234. In the case of RRIRMRPPRLPRPRPRPQKDPRP, the “shrunken log2 fold change” value was 0.0308. For RRIRMRPPRLPRPRPRPQLEPRP, the “shrunken log2 fold change” value was 0.0634. RRIRMRPPRLPRPRPRPQLNPRP was tested, and the “shrunken log2 fold change” value was 0.158. RRIRMRPPRLPRPRPRPQMEPRP was tested, and the “shrunken log2 fold change” value was 0.0809. For RRIRMRPPRLPRPRPRPQNQPRP, the “shrunken log2 fold change” value was -0.183. With RRIRMRPPRLPRPRPRPQNRPRP the “shrunken log2 fold change” value was -0.0361. With RRIRMRPPRLPRPRPRPQNSPRP the “shrunken log2 fold change” value was -0.0933. For RRIRMRPPRLPRPRPRPQNTPRP, the “shrunken log2 fold change” value was 0.0152. RRIRMRPPRLPRPRPRPQQMPRP was tested, and the “shrunken log2 fold change” value was -0.0302. For RRIRMRPPRLPRPRPRPQQNPRP, the “shrunken log2 fold change” value was 0.281.
